Reference: patent US20170349646A1

Molecular target: recombinant nucleoprotein derived from influenza virus subtype A H1N1 (Sino Biological, 40205-[change]) (influenza virus subtype A H1N1)

B1: VHH antibody consisting of the amino acid sequence represented by SEQ ID NO: 08 (VHH)
VHH: EVQLVESGGGLVQAGDSLRLSCAASGRTFINLDMGWFRQPPGKEREYVAAITRNGAITSYADSAKGRFTISRDNAKNTVSLEMNSLKPEDTGVYYCAAYSISNYGSGWYKPDYWGQGAQVTVSS
EC50 (read off the curve): 0.2 µg/mL
